Test results taken from the supplement of paper PMC9170038.

Tested on: MS2 coat protein
Test: apparent KD of MS2 coat protein; designed switch direction (-1 OFF switch, 1 ON switch): -1; higher = weaker reporter binding
Method in brief: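 For each design, the apparent KD is the median over clusters of curves fitted to normalised cluster fluorescence. Clusters held RNA switches with common flanks, transcribed on Illumina chips by stalled E. coli RNA polymerase. These were titrated with SNAP-549-labelled MS2 coat protein, doubling from 0.7 or 1.5 nM to 3 µM, without input, with 200 uM small-molecule ligand, or with an oligonucleotide input.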

[1] = Eterna round: R95, input ligand: microRNA oligo, concentration not stated
[2] = input ligand: microRNA oligo, concentration not stated
[3] = Eterna round: R95, input ligand: FMN 200 uM
[4] = Eterna round: R95, input ligand: none

Row | Sequence | apparent KD of MS2 coat protein [1] [nM] | apparent KD of MS2 coat protein (input ligand: FMN 200 uM) [nM] | apparent KD of MS2 coat protein (input ligand: none) [nM] | apparent KD of MS2 coat protein [2] [nM] | apparent KD of MS2 coat protein [3] [nM] | apparent KD of MS2 coat protein [4] [nM]
1 | AUCAUGUAAGGAUAUCUUACAUGUGACUUCGGUCACAGUUAAGAGAAGGUACAUGAGGAUCACCCAUGUAUAAC [Ex4-3: 37] (puzzle: Exclusion 4) | 25.3 |  |  |  |  | 
2 | AUCAUGUAAGGAUAUCUUAUAUGGAUCGAAAGAUCAAGUUAAGAGAAGGUACAUGAGGAUCACCCAUGUAUAAC [Ex4-3: 33] (puzzle: Exclusion 4) | 19.4 |  |  |  |  | 
3 | AUCAUGUAAGGAUAUCUUAUAUGGAUCUUCGGAUCAAGUUAAGAGAAGGUACAUGAGGAUCACCCAUGUAUAAC [Ex4-3: 32] (puzzle: Exclusion 4) | 24.3 |  |  |  |  | 
4 | AUCCAACAUGAGGAUCACCCAUGUCAGGAUAUCUAGCGGUGCGGCAACCCGGGCGCGCGGAGAAGGGACAACGG [EX1 B.23] (Eterna round: R97, puzzle: Exclusion 1) |  | 56.2 | 27.2 |  |  | 
5 | AUCCAGCUAGGAUAUGCAGAGGCGAUCGCGGGCAUGUCCCAACAUGAGGAUCACCCAUGUAGAAGGAGCCAAGG [Eternabot (Original) Solution 48] (Eterna round: R97, puzzle: Exclusion 2) |  | 76.1 | 33.2 |  |  | 
6 | AUCCCGCGAGGAUAUACAUGAGGAUCACCCAUGUAGGUUCUGGAUGGGCGAAAUUUGUGUAGAAGGCGCACCAA [Tibeaqu] (Eterna round: R96, puzzle: Exclusion 3) |  | 38.4 | 52 | 42.6 |  | 
7 | AUCCGACAUGAGGAUCACCCAUGUCAGGAUAUGGACUGACAUCGAAAGGAUGGAAGAACCAGAAGGGACUGGGC [Betiqu] (Eterna round: R96, puzzle: Exclusion 1) |  | 71.7 | 20.1 | 17.1 |  | 
8 | AUCGUGCAGCUUUGCUGUACGAGUACAUGAGGAUCACCCAUGUAGGAUAUGGUACGCUUUGCGUGCUAGAAGGAUAUGAGAUUA [EX ENG3 1.48] (Eterna round: R96, puzzle: Exclusion NG 3) |  | 40.2 | 31 | 28.5 |  | 
9 | AUCUUGUCAGGAUAUCUGACAAGUGACUUCGGUCACAGUUCAGAGAAGGUACAUGAGGAUCACCCAUGUAGAAC [Ex4-3: 39] (puzzle: Exclusion 4) | 17.9 |  |  |  |  | 
10 | AUGAACAAUGUAGGAUAUGCGUGGCGAAGCUAUGCAGAAGGACAUGAGGAUCACCCAUGUUCAAGCGUCUGCGUACAGAUGCUA [JL eng1 1.35 mod 7] (Eterna round: R96, puzzle: Exclusion NG 1) |  | 26.9 | 13.8 | 10.3 |  | 
11 | AUGAGGGUAAGAAGGUGAAGAUAGAGCGUACCUUAUGGAACAUGAGGAUCACCCAUGUAGCUUUUUGCUCGUCUUAU [JR_SV3TOV2_Sub032] (puzzle: Sensor v3, turn-off variant 2) | 84 |  |  |  | 36.1 | 35.6
12 | AUGCCACAUGAGGAUCACCCAUGUGAGGAUAUGCUAGUAUUCCUAACGGCCGAUGCAGGCAGAAGGCGCUCGGG [Eternabot (L1) Solution 73] (Eterna round: R97, puzzle: Exclusion 1) |  | 19.5 | 24.5 |  |  | 
13 | AUGCCCUGAGGAUAUCUCAUCCCGCACAUGAGGAUCACCCAUGUUCUUCUCUGGGUUUCGAGAGAAGGCAGGCCUA [Armus3] (Eterna round: R97, puzzle: Exclusion 5) |  | 53.6 | 118 |  |  | 
14 | AUGCUCCGUGUAGGAUAUCGCCGUAUUACUCGGCGAGAAGGACAUGAGGAUCACCCAUGUAUGUUAUUAUCACGUGUGGCGCGC [Design 46] (Eterna round: R96, puzzle: Exclusion NG 1) |  | 35.2 | 18.6 | 15.4 |  | 
15 | AUGGACGCAGGAUAUACAUGAGGAUCACCCAUGUGAGGUUGGUAAGUAGGAAGUGAAGGUAGAAGGGCGAGAGA [JR_Exclu3_Sub097] (puzzle: Exclusion 3) | 74.8 |  |  |  | 107 | 84.3
16 | AUGGACGCAGGAUAUACAUGAGGAUCACCCAUGUUAGGGUUGUGAGUAGGAAGGGAAGGUAGAAGGGCGAGAGU [JR_Exclu3_Sub099] (puzzle: Exclusion 3) | 86.9 |  |  |  |  | 
17 | AUGGUACAUGAGGAUCACCCAUGUUAGGAUAUCGCGUGUUCUAAAACUAAGAGAUACACGAGAAGGGACGACAU (puzzle: Exclusion 1) | 81.2 |  |  |  |  | 
18 | AUGUGCACGCUGCGAUCCUACAUGAGGAUCACCCAUGUGGUCUGGUGGCGUGGGUCACCGGACUUGGCUCGUCUUGG [salish99_S_TOV1_R5_075] (Eterna round: R97, puzzle: Sensor, turn-off variant 1) |  | 139 | 170 |  |  | 

Row | Sequence | apparent KD of MS2 coat protein [1] [nM] | apparent KD of MS2 coat protein (input ligand: FMN 200 uM) [nM] | apparent KD of MS2 coat protein (input ligand: none) [nM] | apparent KD of MS2 coat protein [2] [nM] | apparent KD of MS2 coat protein [3] [nM] | apparent KD of MS2 coat protein [4] [nM]
19 | AUGUGCACGCUGCGGUCCUACAUGAGGAUCACCCAUGUGGUCUGGUGGCGUGGGUCGCCGGACUUGGCUCGUCUUGU [salish99_S_TOV1_R5_030] (Eterna round: R97, puzzle: Sensor, turn-off variant 1) |  | 18.6 | 18.7 |  |  | 
20 | AUGUUACUCUGAGGAUAUUGUUUAUUCUUCUCACAUGAGGAUCACCCAUGUUUCCGUGUUUACCGCAAGAAGGCAGUUUUGUUU [JR_ExcNG2_Sub028] (Eterna round: R96, puzzle: Exclusion NG 2) |  | 41.1 | 31.8 | 29 |  | 
21 | AUUAAAACGGCAGGAUAUCAGCGACAUGAGGAUCACCCAUGUUAGGGCUGACCCUGGAGUCUGGCUGAGAAGGGCCGACUCUCA [Riququ] (Eterna round: R96, puzzle: Exclusion NG 2) |  | 192 | 59.9 | 33.2 |  | 
22 | AUUAAUGUCAAAGGAUAUCAGCACGUGUAGUGCUGAGAAGGUUGAACAUGAGGAUCACCCAUGUAGAUCAUUAAUAAUUUAAUU [ENG1/10-B3] (Eterna round: R96, puzzle: Exclusion NG 1) |  | 25.5 | 20.6 | 14.5 |  | 
23 | AUUAUGUUAGGAUAUGCUUAUGGUGGAUAGUCCAGUAUGAUGUAGAAGGGACAUGAGGAUCACCCAUGUGCUGA [EX4 #34] (Eterna round: R97, puzzle: Exclusion 4) |  | 46.9 | 41.9 |  |  | 
24 | AUUCAACAUGAGGAUCACCCAUGUGAGGAUAUGCGAGUAUAGACUUCGGUCUGAUAGAGCAGAAGGCGCAGAUA [EX1 #6] (Eterna round: R97, puzzle: Exclusion 1) |  | 48.7 | 32.8 |  |  | 
25 | AUUCCCACCCGAGGAUAUGCUUUAUUGCCGGGUGGUCAACAUGAGGAUCACCCAUGUAACUAAACGCAGAAGGCGGACAAUAAG [Ediner] (Eterna round: R96, puzzle: Exclusion NG 2) |  | 33.5 | 33.8 | 116 |  | 
26 | AUUGUAGUUGUGAGGAUAUCGUAGAUUUAUUGAAACGAGAAGGCACAUGAGGAUCACCCAUGUAAGUUGUAGGU [JR_BMOE4_Sub054] (puzzle: Brourd's mod of Exclusion 4) | 54 |  |  |  |  | 
27 | AUUGUUUGAUACCUCUAAUACAUGAGGAUCACCCAUGUUAUCGAGGAUAUGCAGAAGAGAGGAGAGCAGAAGGCGAAGUAAGAG [JR_ExcNG3_Sub027] (Eterna round: R96, puzzle: Exclusion NG 3) |  | 21.5 | 19.6 | 15.9 |  | 
28 | AUUUAACAUGAGGAUCACCCAUGUGAGGAUAUGCGAGUGUAGACUUCGGUCUGAUAGAGCAGAAGGCGCAGAUA [EX1 #9] (Eterna round: R97, puzzle: Exclusion 1) |  | 48.6 | 45 |  |  | 
29 | AUUUAAUUUAAUAAGAUCACAUGAGGAUCACCCAUGUUAUAAUAGGAUAUCAGCUCGAUUAGAGCUGAGAAGGAUUAUAACAUG [ExNG3/9-A1] (Eterna round: R96, puzzle: Exclusion NG 3) |  | 35.3 | 28.8 | 20.1 |  | 
30 | AUUUAGAGAGGAUAUAUUAUGUGAAACAUGAGGAUCACCCAUGUAAUAUGAUGGAUAUAAAUAGAAGGCUCAUUUA [Mat - Exclusion 5 - JL mod - D24] (puzzle: Exclusion 5) | 32.3 |  |  |  |  | 
31 | AUUUAUGGAGGAUAUACUUGAGGAUCACCCAAGUGGAGUCCCAAAUGGGCGGUAAAUAGUAGAAGGCCGUCUUA [jl-ex3-4.49 ViennaUCT mod] (Eterna round: R97, puzzle: Exclusion 3) |  | 17.2 | 16.5 |  |  | 
32 | AUUUUGUCAGGAUAUUAGUAGUAAAUGAAUAAAAUUAUUACUGAGAAGGGACAUGAGGAUCACCCAUGUGUCUU [Mat - Exclusion 4 - Eli Mod - D9] (Eterna round: R97, puzzle: Exclusion 4) |  | 24.1 | 23 |  |  | 
33 | AUUUUGUGAGGAUAUUAGUUGUAGAAAAUUGUUAGUAUAGCUGAGAAGGCACAUGAGGAUCACCCAUGUAAAUC [JR_Ex4_Sub042] (Eterna round: R97, puzzle: Exclusion 4) |  | 91 | 19 |  |  | 
34 | CAAAACAGAGGAUAUACAUUUCCUCACCGCCAAAUGGCGGAACAUGAGGAUCACCCAUGUAGAAGGCUGGAAAA [Gesous] (puzzle: Exclusion 2) | 114 |  |  |  | 292 | 118
35 | CAAACCUCAGGAUAUCGAGACUCGGACAUGAGGAUCACCCAUGUGAGGCUCGUGAGUCCACGAGAAGGGAGGAGCA [Eternabot (Original) Solution 38] (Eterna round: R97, puzzle: Exclusion 5) |  | 26.1 | 17.4 |  |  | 
36 | CAAAUCUGAGGAUAUCGAUAUUUGUACAUGAGGAUCACCCAUGUCCUAUUUAUUAUAUUUCGAGAAGGCAGUGUAU [JR_E5_Sub094] (puzzle: Exclusion 5) | 19.2 |  |  |  |  | 
